From patent publication US20130018176A1, “METHODS OF PRODUCING HYBRIDOMAS AND MONOCLONAL ANTIBODIES AND ANTIBODIES PRODUCED THEREBY” (AMGEN INC., priority 2007, published 2013)

Columns and labels:
rcyno hepcidin = experiment: BIAcore solution equilibrium binding analysis on immobilized antibody; set-up: species or system cyno
Method: The following example describes KinExA and BIAcore binding analysis for various antibodies to recombinant cyno hepcidin (rcyno).
B) BIAcore Solution Equilibrium Binding Analysis for mAb R9 and Ab43 Binding to rcynoHepc.
Antibody surface immobilization: antibodies R9 and Ab43 were immobilized on a CM5 chip. The immobilization was performed at a flow rate 10 uL/min of running buffer (DPBS: Dulbecco's Phosphate Buffer Saline1X, GIBCO 14190, with 0.005% BIAcore surfactant P-20) according to manufacturer's instructions. The carboxylated matrix of the sensor chip was first activated with a 100 ul injection of 1:1 mixture of EDC (75 mg/mL N-ethyl-N-(dimethylamine-propyl)carbodiimide in water, from BIAcore) and NHS (11.5 mg/mL N-hydroxysuccinimide in water, from BIAcore). 180 ul of antibodies (−20 ug/ml in 10 mM Na-acetate pH4.0) was injected to immobilize onto the sensor chip at 30 uL/min. […]
BIAcore analysis: Fixed concentrations of rcynoHepc were incubated with various concentrations of mAb R9 and Ab43 at room temperature for several hours before run through the immobilized antibody surfaces. […] The equilibrium dissociation constant (KD) was calculated from nonlinear regression analysis of the competition curves using a one-curve one-site homogeneous binding model (KinEx™ software, Sapidyne Instruments Inc., Boise Id.).

[1] = biological target: T1, mature human hepcidin (SEQ ID NO: 9) (Homo sapiens, UniProt P81172); experiment: Epitope specificity: antibody binding to immobilized hepcidin surface after pre-complex with hepcidin variants (BIAcore); details: interpretation of Table 6
T1 construct: made in house; host or cells: recombinant
Method: (§1) The epitope specificity of anti-human hepcidin antibodies was evaluated by assessing ability of the antibodies to bind to mature human hepcidin (SEQ ID NO: 9) after pre-complex formation with different hepcidin variants.
(§2) Recombinant hepcidin was immobilized on a CM5 chip according to manufacturer's instructions at a flow rate 10 μL/min of running buffer (DPBS: Dulbecco's Phosphate Buffer Saline1X, GIBCO 14190, with 0.005% BIAcore surfactant P-20). The carboxylated matrix of the sensor chip was first activated with a 100 μL injection of 1:1 mixture of EDC (75 mg/mL N-ethyl-N-(dimethylamine-propyl)carbodiimide in water, from Biacore) and NHS (11.5 mg/mL N-hydroxysuccinimide in water, from Biacore). 180 μL of rhHepc (˜20 μg/ml in 10 mM Na-acetate pH4.0) was injected to immobilize onto the sensor chip at 30 μL/min. The excess reactive groups of the sensor chip were deactivated with an injection of 100 μL of ethanolamine (1.0M, from Biacore).
(§3) Forms of hepcidin used for the pre-complex were: correctly folded hepcidin as a positive control, the C1-C8, C3-C6 hepcidin variant (see Example 9), hepcidin 20 (N-terminally truncated, see Example 9) and linear hepcidin (Example 9). 1 nM solutions of antibody (2.41, 2.7, 43, and R9) were preincubated with 10 nM of each antigen at room temperature for several hours before run through the immobilized hepcidin surface. The binding signal obtained was proportional to the concentration of free antibody in solution at equilibrium.
(§4) Some antibodies require the five amino acids at the N-terminus of the molecule (e.g. Ab43 and to a lesser extent, R9).

[2] = biological target: T2, mature human hepcidin (SEQ ID NO: 9) (Homo sapiens, UniProt P81172); experiment: as above; details: interpretation of Table 6; remark: listed apart in the source
T2 construct: made in house; host or cells: recombinant
T2 sequence (P81172 60-84): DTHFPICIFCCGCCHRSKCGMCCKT
Method: as §1, §2, §3, §4

[3] = test system: mature human hepcidin (SEQ ID NO: 9); experiment: as above
Method: as §1, §2, §3, §4

synthetic human hepcidin = biological target: T3, synthetic human hepcidin (Homo sapiens, UniProt P81172); experiment: Iron-responsive beta-lactamase assay in 293/Fpn/BLA cells; type: cell-based; details: 50 ng/mL synthetic human hepcidin, 2.5 ug/mL ferric citrate, read-out: EC50, decreased intracellular concentration of iron
T3 construct: made in house; host or cells: chemical synthesis (Fmoc solid phase), oxidatively folded
T3 sequence (P81172 60-84 limits assumed): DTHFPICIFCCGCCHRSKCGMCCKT
Method: The effect of anti-human hepcidin antibodies on this hepcidin-mediated iron sequestration was evaluated in vitro. […] These 293/Fpn/BLA cells, taken from a 70-80% confluent culture, were plated at 2.8×10^5 cells/mL in DMEM (Invitrogen Cat#11965) 5% FBS (Invitrogen Cat#10099-141) PSQ (Invitrogen Cat#10378-016), 90 uL/well (25,000 cells/well) in BioCoat Poly-D Lysine coated plates (Becton-Dickinson Cat#35-6640) and incubated at 37C with 5% CO2. At the end of the same day, a solution of assay medium (DMEM 5% FBS PSQ) with 100 ug/mL doxycycline was made, 10 uL/well of it added to the plate, and the plate incubated overnight or for at least 20 hours. […] Mixtures were added at 100 uL/well and incubated overnight at 37C, 5% CO2 in a cell culture incubator. Plates were then removed from the incubator and equilibrated to room temperature for 10 minutes before adding 20 uL/well of the prepared Invitrogen GeneBlazer CCF4 A/M development reagent (Invitrogen Kit# K1085) and incubating for 90 minutes in the dark. Development reagent was also added to 16 wells of a control assay plate without cells containing 100 uL assay medium (DMEM 5% FBS PSQ) and incubated for the same time. Blue & Green fluorescence signals were then read on an Envision Multilabel Reader (Perkin-Elmer Inc.) by exciting at 409 nm and reading emissions at 447 nm (blue) and 520 nm (green).

rcyno hepcidin, sequence (as listed by the source): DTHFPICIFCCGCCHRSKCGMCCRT

B1: Antibody Ab43: murine anti-human hepcidin monoclonal antibody generated by viral immunization; CDRs SEQ ID NOs: 16-21 (antibody, V domains shown)
VH: QIQLVQSGPELKKPGETVKISCKASGYTFTTYGMSWVKQAPGKGLKWMGWINTYSGVPTYADDFKGRFAFSLETSASTAYLQINNLKNEDTATYFCASLWYYGRAFDYWGQGTTLTVSS
VL: NIVLTQSPASLAVSLGQRATISCRASESVDSYGNSFMHWYQQKPGQPPKLLIYLASNLESGVPARFSGSGSRTDFTLTIDPVEADDAATYYCQQNNEDRTFGGGTKLEIK
Rcyno hepcidin
  binding affinity to rcyno hepcidin: significant binding affinity
[1]
  Binding to Solution Epitopes, Hepc20: − (100% antibody binding to the hepcidin surface and therefore no inhibition by hepcidin in solution)
[2]
  Binding to Solution Epitopes, Folded Hepcidin: ++++ (0% antibody binding to the hepcidin surface and therefore 100% inhibition by hepcidin in solution)
[3]; 1 nM antibody preincubated with 10 nM C1-C8, C3-C6 hepcidin variant
  Binding to Hepcidin Surface, C1-C8 C3-C6: 25%
[3]; interpretation of Table 6
  Binding to Solution Epitopes, Linear Hepcidin: − (100% antibody binding to the hepcidin surface and therefore no inhibition by hepcidin in solution)
Synthetic human hepcidin
  EC50: 13.8 nM
